Target: T1, Cathepsin L (Calbiochem) (UniProt P07711 114-333, limits assumed)
T1 construct: Bought enzyme
Experiment: complex binding, 2 ug SCCA protein mixed with cathepsin, 37 C 30 min, SDS-PAGE
Method: Complex binding of SCCA to substrates was performed by mixing 2 μg of SCCA-protein with 0.5 μg of Cathepsin G (Biodesign Int.) or 0.5 μg of […] Cathepsin L (Calbiochem) in 1×PBS buffer in a total volume of 4.5 μl. Samples were incubated at 37° C. for 30 minutes. To each sample, 0.5 μl of 10× Complex-buffer (20% SDS, 140 mM Mercaptoethanol, bromophenolblue) was added. Samples were incubated for 3 minutes at 95° C. and analyzed on a 12.5% SDS-PAGE-gel. The SCCA1/A2 fusion protein forms a complex with Cathepsin G but not with Cathepsin L showing that the fusion protein is functional and has the substrate specificity of SCCA2 (FIG. 8).

T1 sequence (P07711 114-333 limits assumed): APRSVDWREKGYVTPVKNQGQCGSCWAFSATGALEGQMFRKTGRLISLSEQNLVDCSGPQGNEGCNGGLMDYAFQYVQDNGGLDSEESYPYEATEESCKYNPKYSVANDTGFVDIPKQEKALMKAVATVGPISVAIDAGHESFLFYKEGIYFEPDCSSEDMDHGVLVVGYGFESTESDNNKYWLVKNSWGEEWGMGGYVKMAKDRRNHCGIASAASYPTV

B1: SCCA1/SCCA2 fusion protein (other)
chain: MNSLSEANTKFMFDLFQQFRKSKENNIFYSPISITSALGMVLLGAKDNTAQQIKKVLHFDQVTENTTGKAATYHVDRSGNVHHQFQKLLTEFNKSTDAYELKIANKLFGEKTYLFLQEYLDAIKKFYQTSVESVDFANAPEESRKKINSWVESQTNEKIKNLIPEGNIGSNTTLVLVNAIYFKGQWEKKFNKEDTKEEKFWPNKNTYKSIQMMRQYTSFHFASLEDVQAKVLEIPYKGKDLSMIVLLPNEIDGLQKLEEKLTAEKLMEWTSLQNMRETCVDLHLPRFKMEESYDLKDTLRTMGMVNIFNGDADLSGMTWSHGLSVSKVLHKAFVEVTEEGVEAAAATAVVVVELSSPSTNEEFCCNHPFLFFIRQNKTNSILFYGRFSSP
notes: Recombinant serpin fusion (exons 2-7 of SCCA1 fused to exon 8 of SCCA2); also called SCCA1/A2; SCCA1/A2 fusion protein
binding result: no binding

Source: patent US20070218463A1 (CANAG DIAGNOSTICS, published 2007)
